According to publication PMC3075217:

Biological target: rat collagen type I (rat) (UniProt P02454)
Experiment: ELISA; rat collagen type I coated on a 96-well plate; rPnxIIIA variants applied at 10 μg/ml; detected with anti-6x Histidine tag monoclonal antibody, read as A620

UniProt P02454, sequence (P02454 152-1207, chain 1 of 2): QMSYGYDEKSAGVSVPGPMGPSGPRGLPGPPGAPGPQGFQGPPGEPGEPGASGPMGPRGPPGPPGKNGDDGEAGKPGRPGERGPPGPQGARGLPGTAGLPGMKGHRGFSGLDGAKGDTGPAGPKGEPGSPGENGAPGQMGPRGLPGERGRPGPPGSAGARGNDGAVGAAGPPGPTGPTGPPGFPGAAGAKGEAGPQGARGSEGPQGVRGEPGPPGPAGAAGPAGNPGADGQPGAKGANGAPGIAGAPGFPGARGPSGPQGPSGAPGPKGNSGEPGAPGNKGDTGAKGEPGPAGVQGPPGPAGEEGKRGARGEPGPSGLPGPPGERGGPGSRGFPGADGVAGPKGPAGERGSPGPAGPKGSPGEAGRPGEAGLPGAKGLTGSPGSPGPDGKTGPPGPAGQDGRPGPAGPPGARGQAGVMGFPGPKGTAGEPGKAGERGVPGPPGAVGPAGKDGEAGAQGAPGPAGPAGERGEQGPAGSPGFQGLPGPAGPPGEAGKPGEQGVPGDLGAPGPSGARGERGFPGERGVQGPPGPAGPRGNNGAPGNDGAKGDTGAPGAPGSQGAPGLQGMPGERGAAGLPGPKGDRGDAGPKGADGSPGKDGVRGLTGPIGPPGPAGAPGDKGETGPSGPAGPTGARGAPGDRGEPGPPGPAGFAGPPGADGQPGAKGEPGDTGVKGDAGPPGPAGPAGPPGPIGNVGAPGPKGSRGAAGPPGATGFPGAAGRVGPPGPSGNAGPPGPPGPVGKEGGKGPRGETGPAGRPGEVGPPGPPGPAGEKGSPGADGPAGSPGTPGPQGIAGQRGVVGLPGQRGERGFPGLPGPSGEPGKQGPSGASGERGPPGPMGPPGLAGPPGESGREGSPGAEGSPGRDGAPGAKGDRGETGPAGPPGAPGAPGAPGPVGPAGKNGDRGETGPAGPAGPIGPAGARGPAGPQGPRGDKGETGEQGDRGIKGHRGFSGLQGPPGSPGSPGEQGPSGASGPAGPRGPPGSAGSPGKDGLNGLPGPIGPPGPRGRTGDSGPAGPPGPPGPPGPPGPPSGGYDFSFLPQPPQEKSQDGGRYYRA
UniProt P02454, sequence (P02466 86-1125, chain 2 of 2, further chain): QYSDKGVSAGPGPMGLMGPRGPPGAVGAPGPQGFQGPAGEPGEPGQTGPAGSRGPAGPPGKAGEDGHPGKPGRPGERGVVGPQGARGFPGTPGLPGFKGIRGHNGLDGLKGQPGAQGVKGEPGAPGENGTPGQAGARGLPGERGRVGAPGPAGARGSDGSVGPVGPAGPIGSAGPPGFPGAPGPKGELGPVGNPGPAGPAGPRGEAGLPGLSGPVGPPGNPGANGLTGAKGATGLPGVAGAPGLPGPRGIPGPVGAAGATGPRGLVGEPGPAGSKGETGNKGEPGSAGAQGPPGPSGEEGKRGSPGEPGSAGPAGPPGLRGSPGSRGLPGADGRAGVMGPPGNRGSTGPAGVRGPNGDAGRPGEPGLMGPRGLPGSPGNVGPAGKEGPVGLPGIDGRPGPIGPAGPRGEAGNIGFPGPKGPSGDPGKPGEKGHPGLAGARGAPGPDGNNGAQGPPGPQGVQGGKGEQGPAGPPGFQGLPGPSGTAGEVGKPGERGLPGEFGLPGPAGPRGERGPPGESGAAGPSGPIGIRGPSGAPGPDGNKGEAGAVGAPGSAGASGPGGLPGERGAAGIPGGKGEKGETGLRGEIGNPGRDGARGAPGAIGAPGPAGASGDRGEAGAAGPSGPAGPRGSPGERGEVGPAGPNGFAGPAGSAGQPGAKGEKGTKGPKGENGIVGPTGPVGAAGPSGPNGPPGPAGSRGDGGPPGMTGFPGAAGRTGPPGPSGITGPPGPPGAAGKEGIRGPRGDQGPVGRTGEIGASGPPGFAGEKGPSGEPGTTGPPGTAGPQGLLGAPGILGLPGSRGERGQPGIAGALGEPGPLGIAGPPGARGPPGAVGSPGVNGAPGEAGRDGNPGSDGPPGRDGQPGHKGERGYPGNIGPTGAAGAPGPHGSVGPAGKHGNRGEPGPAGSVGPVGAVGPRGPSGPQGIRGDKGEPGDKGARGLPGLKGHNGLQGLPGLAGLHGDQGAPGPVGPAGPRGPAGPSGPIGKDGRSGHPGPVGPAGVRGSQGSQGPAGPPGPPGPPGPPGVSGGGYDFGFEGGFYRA

Recombinant PnxIIIA protein (natural protein)
A620 at 10 μg/ml: 0.55 A620
